From the DeepSol protein solubility set

assay: soluble on expression in E. coli; label from the status in PepcDB or PDB records

Sequence | soluble on expression in E. coli
SLAEGLITGTVLTQFDQLYRKKPGMTMSCAKLPQNISKNRYRDISPYDATRVILKGNEDYINANYINMEIPSSSIINQYIACQGPLPHTCTDFWQMTWEQGSSMVVMLTTQVERGRVKCHQYWPEPTGSSSYGCYQVTCHSEEGNTAYIFRKMTLFNQEKNESRPLTQIQYIAWPDHGVPDDSSDFLDFVCHVRNKRAGKEEPVVVHCSAGIGRTGVLITMETAMCLIECNQPVYPLDIVRTMRDQRAMMIQTPSQYRFVCEAILKVYEEGFVKPLTTSTNK | not soluble
MGSDKIHHHHHHDSDIDPVYVLSGDSMELMGGPNEVILTPDNPQALALTVYWSGDGRLALSDTLLQAPVNVAEITIQFSKDEHFTAPLNIAVDKNIHSRQFLCEELNSLLDRLGYEANEKAPLWIRMRSALAANIAPEYSNVMEVLVQSYRIELVLAQVLDKDWKNTSMTLASPAEDGIYKGFMGVNGWENWWLREANNVMWGNLGEEGKTFYASSEDSHWNFWFPNPSGCYYTTVNTVEGWWSALHVASLSVSGDVTGEMAYNKQSNQWTLPVNLATQSTLTISVSGKGSLYNRETTDIGPAIEQTVAFGGNSQNLLFGESADNISVTMPAGENLLVLDLSNPLQFTIGIGEDVPQPEVSQYLYFSGITNWEGFDDYLTLYDEAGLCYGGAHWIDSEWGYRAYTEQAWEPAYNAADGSTDLSGTLILAESKDNIPAPAQGLYVMDFNMKSLTYELTQVQTVTFTGLNDNWSESPMTQSAENPEIFTAEFIKEKKSPWGVKVLINNNWNLFFGGGSGILHLKHSESSAGFDGDDELEIGKTYVLTVDLGHQTYSYSLK | not soluble
MSKKIRTEAVDYLFDAILSLKDKEECYTFFEDICTINELLSLSQRFEVAKMLREQKTYLEIAEKTGASTATISRVNRSLNYGNDGYDMVFERMEK | not soluble
MQRSLFSKFRQILTYKCDWYGKELILADKTYPSTQRCAKCGYVKTGDEKITLQGNQKHGTKHNEYICYKCDYSNDRDENAVLNLLALARLEHHHHHH | not soluble
EMLYRSVDNRDIPQAMPKTIQALAHWDYQGLPDSEVVEAFSVELLALYETKALPKIANRMNIEVSGMRSLMMKTGRKLSRLEVLPTSIKELSRLDKRWADAKHWVAFKNLSGAITVNHYLAALDMQVNEMGEIEAQPEKRQIYVDLFFKT | not soluble
MRKFIFILLLIISSFSFCSNEISVDKSVEESVTKDYDQDGKYSSYERALRNAQGSIYVTLPEKRGYWYTILDRIKAEEDELMPDEKARIRRK | not soluble
MGSDKIHHHHHHMQETKTTVRASTLSNGRSLAAYHEDFDRKWASAWGRTLTYAQMHANRVVQSARIVLSHPDIWGKVASGFVNAARGRKRLLRSLEIAVTYRCNARCEQCSCRRDHDPVREKTELLTLPELQRVIDEAVDMGAFQFCINGGEPMLEEEKVFALLDYIKTRHKGYVHLCTNGTLLDDDKVARLAEHHLDSVEMGFDSAFEDVHDANRVRGGYRKVFHNIEAFRKRGVGVVLNTILTNQKVRSDDMLFTMDLAKKHGCMLQVTPCCLTGALRGRMDMMLTEKARFYFYWFLAQSTNNRSDLYSSLTRIKCPAGREKLGLQPYGDVVSCPLIQIRYGNVREKGLAAIQQDILADPYYGLDGSHGCLPAMSETFIRERLSGDR | not soluble
MTNNDPYHTLINEICALSLISTPERFYESANFKISEVDFTLQYQDRDEGRAVLIYGDMGALPTRNRDAALLALMDINFHMFSGVHSPVFSWNAQTSRVLLMGSVSLERASAEGVLLLMKSFADLANEWREHGFIGQVKTAGAPAEQPVATAAKRESLSASGKFQ | not soluble
MGVCRICGLSLDEISDSIGVCLECLRKGNLDFARKAHRKWREEIGLPVERWAREEGKVCFLCVNSCVIPEGKTGFCGVLRNEGGRLSYITGSHRKAFLHWYYDPHPTNCVALPICPEREHRGFYNFAVFFAGCNLDCLFCQNIDHKYMVKDGRISEGKIVDIDELVEIAMKPRVSCVCFFGGDPTPWTVFALEFAVKLGNRRRICWETNGLAHPRIMERMARVSLESGGIVKIDWKAFSPEVYEALTGVDGKSAVRRIMENVQLVSSMGKGREIPLLVISVLVIPHYIDEKEIEGIAGFISSVDPEIPLVLLAFAPQHLMSDLPTTRKHHMERVKQKALEKGLKRVFVENVWLLS | not soluble
GPGSMAFHPRDAFILHQEQIQRYNEGDEVDTSAEQKVQIELQRLTDSESTVTIAFSHEDHTLGNPLRHVLMQNREVTSAGYAIPHPLEAKMLLHVQSTDYAVEAVAEGLERLASICDETLQSFEDCMHRMRCEGAKQE | not soluble
MSLEKYGNVNDFLDDDLVKNGNPDVYIVVGENSATPDVTSANKISAKIGTMTYTEKVVEDTSTTGYQIIGESESINLLDGTDKLDSAGTKKSWILVIGADDSYSDYFDDDEGNSFSYSEFSEADKTRSLGELGYLLKLYDIDPKNHFESDDDASELVFVRITDSDKNANSQTYNIEKDMVYVSIVYPNQISAFKLAKELEEGYEIPFLGDKYRIVKIDEDDDIIYLGTASYEGTIAHNEYISSGEYQVVLGEILENEDEYRVEISVLRNGNMIEEHTETEGHHHHHH | soluble
MSLSKDEELLQNYCSILFTYKTIGISNLHLYYFRETEIKSLKQLINAEFAILQTCNRVEIYLYSDTNTLKEVNKIIQYLNNIHNEPIGNQARVLCGKDAAKHLFLVASGADSLSIGEYEILSQIRSTIDMFKKLGFSGKYLQIFFERAIKVGRKVREETSISKGKVGIYSLAIDEAKKRFNDFYDRRILVIGAGEMAQKITSMLHNEGAKDVTIMNRTIEKAKQLALKFGYNYEKLDLDKLGNFDVAFISIYHENLRLENKWNTLIVDITVPPLFTGNNVITLEELERISNLNFKAREEELAKINKLVEDGINELLYDYKKEIYTEFMSKIMKREGHHHHHH | soluble
NDNRPVFKEGQVEVHIPENAPVGTSVIQLHATDADIGSNAEIRYIFGAQVAPATKRLFALNNTTGLITVQRSLDREETAIHKVTVLASDGSSTPARATVTINVTDVN | soluble
MSLATLLHIDSSVFPSAASASRAVAETFRTAWQEQHPDGTVIYRDLSANPVPHITADAHTAGFADPATHTPGQAAAFAEREKLIAELEQADAVLIGAPMYNYAIPSTLKAWLDNVILMGRTAANENSKVTGTPVTVIASRGGSYAPGTPREPYEYVQNYLKAVLSDALGLELEFIVPELTMAAHNPAMSELVPLAEASRAKAHEDAAAKAKELADRFAAEGHHHHHH | soluble
AEQDMYLLRQSFDKYKTVSAGVPWFSALFGRDSLITASQTLMLNPEIAKETLMLLAAYQGKHEDEWREEAPGKILHELRLGEMARCQEIPHTPYYGTVDATPLWLMLYSEYYSWTHDRETLEQLWPHALAAMDWIDRNMQPSGYLTYHRKSKRGLDNQGWKDSGDCIVDRKGDLANGSIALSEVQAYVYAAKTRLAEIARMKKRLDLFERWQEEARSLKERFNQDFWIEDQDFCALALDGAGKQVDSITSNPGHCLLLGIFTPERAYSVAERLRAPDMFNGWGIRTLSSLSPAYNPMGYHIGSVWPHDNSLIAMGLRSLGLIDQALEIFQGLLDMTSQQPYQRPPELFCGYERNGDRSPVQYPVACTPQAWATGSIFQ | not soluble
MGSSHHHHHHSSGLVPRGSHMSSENIPLRVQFKRMKAAEWARSDVILLESEIGFETDTGFARAGDGHNRFSDLGYISPLDYNLLTNKPNIDGLATKVETAQKLQQKADKETVYTKAESKQELDKKLNLKGGVMTGQLKFKPAATVAYSSSTGGAVNIDLSSTRGAGVVVYSDNDTSDGPLMSLRTGKETFNQSALFVDYKGTTNAVNIAMRQPTTPNFSSALNITSGNENGSAMQLRGSEKALGTLKITHENPSIGADYDKNAAALSIDIVKKTNGAGTAAQGIYINSTSGTTGKLLRIRNLSDDKFYVKSDGGFYAKETSQIDGNLKLKDPTANDHAATKAYVDKAISELKKLILKK | soluble
MSNVHPYTIFATMPHKSTAKDILIMSYDLSKRLVIGLASSALFDLSESDNIFRMEGAETYRQYQREKQNHPLKKALSFHLLKNFCQSMK | not soluble
MGSDKIHHHHHHMRINVEEAIEKLLANQLVAMPTETVYGLAARLTCPGAIKKIFEIKGRSLVNPLIIHVANPIDVCAYAIALPPHFDALTHAFWPGPLTLIVPIQLDLVDSIVRAGLPTAAFRMPSHPLTLHVIRAVGPLVMPSANLSGKPSSTDVKHVEMDFGLDFPVLDGGPCQEGVESTILHYRNSQWEIARLGALSATVFQPILGYEPIYQKIVKNDQIISPGQMFRHYAPQATLFLGDQKQITEADFIVGFTEKSYPVEKRVLYLGSLSNPHEVAENLYAVLRQLDFEKAKIAWVDMDFPSEGLWKTIAERLSRAGEK | not soluble
MGSDKIHHHHHHMGEVYEKNNIDFDSIAKMLLIKYKDFILSKFKKAAPVENIRFQNLVHTNQFAQGVLGQSQHLCTVYDNPSWHSIVLETLDLDLIYKNVDKEFAKDGHAEGENIYTDYLVKELLRYFKQDFFKWCNKPDCNHCGQNTSENMTPLGSQGPNGEESKFNCGTVEIYKCNRCGNITRFPRYNDPIKLLETRKGRCGEWCNLFTLILKSFGLDVRYVWNREDHVWCEYFSNFLNRWVHVDSCEQSFDQPYIYSINWNKKMSYCIAFGKDGVVDVSKRYILQNELPRDQIKEEDLKFLCQFITKRLRYSLNDDEIYQLACRDEQEQIELIRGKTQETKSESVSAASKSSNRGRESGSADWKAQRGEDGK | not soluble
MSLDRKLKGSVEEKTLEYLRKRPEIYMALSTGIVNLNGLAALISKENDGMNQLSIRSVLQKMIRDGLVSDYRKSTDDLLKRSKVTLQDKVSVITSRRKIDIDFLSVTFLTDSVVYIVDETRAKNIPKDALIERNVSLIHIFSPPEIVTTPGFAMNVVQRIYAANVNILQLISCSNETMIVVNRDDAISAYSALTSYEGHHHHHH | soluble
MDFKHLTQFKDIIELDKRPVKLDERETFNVSWGIDENYQVGAAISIASILENNKQNKFTFHIIADYLDKEYIELLSQLATKYQTVIKLYHIDSEPLKALPQSNIWPVSIYYRLLSFDYFSARLDSLLYLDADIVCKGSLNELIALEFKDEYGAVVIDVDAMQSKSAERLCNEDFNGSYFNSGVMYINLREWLKQRLTEKFFDLLSDESIIKKLKYPDQDILNLMFLHHAKILPRKYNCIYTIKSEFEEKNSEYYTRFINDDTVFIHYTGITKPWHDWANYASADYFRNIYNISPWRNIPYKKAVKKHEYKEKYKHLLYQKKFLDGVFTAIKYNVMKG | not soluble
MGSDKIHHHHHHMNTDIAKNTNSLNDDKKSNSEQRPYGIVLYGATSFVGQITAHYLAEFLSTSKDASGTTVTWAIAGRDEKKLNELQSKLASKVNIIIANSDDATSLDELTEQTQVIISTVGPYLKYGEPLIKSCVDNGTDYVDLTGEAIFIKDMIDKYQEAAKQSGARIVNSCGFDSIPSDLGVYFTQKQAEAKFDSACDVIHMRVKAAKGGLSGGTIASMATIFEEVGQDKSRRKQVANPYLLNDDKDVPNVRQSNVSKPEYDSEHKRWLAPFVMASINTRIVHRSNQLLGYEYGRDFKYDEAMWMKDGIKGKLTSYALSAGLLGFATAMMITPSRELLSKHVLPKSGSGPSKEEQENGYFDIRLFGKTANKETIATKVTGDKDPGYGSTSRMLSQAALCLAQDISKEAVGGGFWTPASAMGDKLLARLKEHAGLSFDVIDR | not soluble
